Patent publication US12458681B2, “Compositions and method for treating acute radiation syndrome” (Prince Biotech, LLC, priority 2014, dated 2025)

Key:
[1] = target: Insulin-degrading enzyme (IDE) (Homo sapiens, UniProt P14735); assay: Differential Shift Assay of PIF mutants; assay type: binding
Text: Thus 2 putative mutants were conceived, mutant-1: P6→E6, and mutant-3:[…]; c. Table represent the mutants that were considered, of them 2 were synthesized based on their putative availability as options for ligand-receptor disruptors.

[2] = test system: NOD mice; details: adoptive transfer and spontaneous disease, long term; cited from earlier work

Sequence	binding to IDE [1]	diabetes development [2]
MVRGKPGSANKPSDD [mut3]	bind	
GRVDPSNKSMPKDIA [PTFscr]		no effect
MVRIKEGSANKPSDD [mut1]	bind	
